From publication PMC2150699 (The Journal of Cell Biology, 2000) come the findings set out here.

The target in assay [1] is HT-WG (hexahistidine-tagged WG fragment of N-WASP, amino acids 1-277) (bovine, UniProt Q95107 1-277). In words: pull-down.
Assay [2] deals with HT-WGP (hexahistidine-tagged WGP fragment of N-WASP, amino acids 1-396) (bovine, UniProt Q95107 1-396). In words: pull-down.
HT-WGP (hexahistidine-tagged WGP fragment of N-WASP, amino acids 1-396), sequence (Q95107 1-396): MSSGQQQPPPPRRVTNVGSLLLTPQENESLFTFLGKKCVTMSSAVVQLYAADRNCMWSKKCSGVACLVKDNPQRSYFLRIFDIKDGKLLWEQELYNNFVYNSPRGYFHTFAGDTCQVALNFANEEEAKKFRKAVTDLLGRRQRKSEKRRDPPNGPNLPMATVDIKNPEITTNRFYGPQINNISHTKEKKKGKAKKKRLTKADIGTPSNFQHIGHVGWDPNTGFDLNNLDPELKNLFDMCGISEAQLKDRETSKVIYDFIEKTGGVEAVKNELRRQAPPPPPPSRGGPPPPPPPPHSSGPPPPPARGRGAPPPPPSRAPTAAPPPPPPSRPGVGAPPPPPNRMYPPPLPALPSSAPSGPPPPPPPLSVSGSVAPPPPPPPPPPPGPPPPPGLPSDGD

HT-WG (hexahistidine-tagged WG fragment of N-WASP, amino acids 1-277), sequence (Q95107 1-277): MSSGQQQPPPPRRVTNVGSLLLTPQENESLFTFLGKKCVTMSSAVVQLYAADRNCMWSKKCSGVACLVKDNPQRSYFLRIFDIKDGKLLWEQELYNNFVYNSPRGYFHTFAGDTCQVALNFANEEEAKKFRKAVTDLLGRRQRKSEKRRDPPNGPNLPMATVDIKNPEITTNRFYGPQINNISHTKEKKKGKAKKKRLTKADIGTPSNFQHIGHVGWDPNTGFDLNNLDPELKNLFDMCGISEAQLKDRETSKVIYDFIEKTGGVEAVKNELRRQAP

B1: GST-VCA (GST fusion of the COOH-terminal VCA segment of bovine N-WASP, amino acids 392-505) (domain or fragment, UniProt Q95107 392-505, looked up)
chain: PSDGDHQVPTPAGSKAALLDQIREGAQLKKVEQNSRPVSCSGRDALLDQIRQGIQLKSVTDAPESTPPAPAPTSGIVGALMEVMQKRSKAIHSSDEDEDEDDDEDFEDDDEWED
B1: the binding result in assay [1] and in assay [2] was “binds” each time.
